In US20230192854A1 (SHANGHAI JUNSHI BIOSCIENCES, published 2023):
Residue numbers refer to the chain shown, from its start. One block for each binder: values may come before it.

What was measured:
[1] = target: T1, murine BTLA (murine, UniProt Q7TSA3 30-183, limits assumed); test: OD 450 nm against log ng/mL of antibody (ELISA-type readout as drawn; Example 11 describes a Fortebio/SPR chip assay with BTLA coupled to the chip)
T1 sequence (looked up): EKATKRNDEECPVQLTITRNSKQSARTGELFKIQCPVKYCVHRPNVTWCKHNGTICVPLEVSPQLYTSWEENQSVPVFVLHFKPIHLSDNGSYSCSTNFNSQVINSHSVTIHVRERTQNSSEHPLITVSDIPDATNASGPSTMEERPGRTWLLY

[2] = target: hBTLA expressed on cells (human, UniProt Q7Z6A9 31-289); test: cell-based or functional assay
[3] = target: T2, human C1q (human, UniProt P02745 23-245; P02746 28-253; P02747 29-245); test: C1q binding assay, method not described (Table 18: 'Non-specific binding')
T2 construct: also called C1q protein

[4] = target: T3, recombinant human FcRn (human, UniProt P55899 24-297; P61769 21-119); test: SPR, Biacore T200; Fc receptor captured on anti-His antibody, antibody injected
T3 construct: Captured on an anti-His antibody
Description: (§1) ADCC is initiated when an antibody binds to a cell surface target protein and then links to an Fc γ receptor (FcγR) expressed on effector cells. […] In conjunction with ADCC, CDC is activated when antibodies cross-link the cell surface target and C1q protein, followed by a cascade reaction of complement complex formation and target cell lysis. As a proxy for ADCC and CDC, the detection of antibody binding to FcγR and C1q may serve as basic indicators of ADCC and CDC. Thus, in the present invention, the kinetic binding affinity of monoclonal antibodies for major FcγRs was evaluated using biacore T200 (GE).
(§2) Anti-His antibody (GE) was immobilized on the sensor wafer. Various Fc receptors, including recombinant human FcγRIIIA (CD16a) V176, recombinant human FcγRIIA (CD32a) R167, recombinant human FcγRI (CD64) and recombinant human FcRn were captured, then a series of diluted recombinant human anti-BTLA antibodies (i.e., hu18) were injected, and the binding properties of the interactions were assayed and analyzed. hu18 is an IgG4 subtype, and hu18-IgG1 is an IgG1 subtype that shares the same Fab as hu18 and serves as a positive control.

[5] = target: T4, recombinant human FcγRIIA (CD32a) R167 (human, UniProt P12318 36-218); test: as above
T4 sequence (looked up): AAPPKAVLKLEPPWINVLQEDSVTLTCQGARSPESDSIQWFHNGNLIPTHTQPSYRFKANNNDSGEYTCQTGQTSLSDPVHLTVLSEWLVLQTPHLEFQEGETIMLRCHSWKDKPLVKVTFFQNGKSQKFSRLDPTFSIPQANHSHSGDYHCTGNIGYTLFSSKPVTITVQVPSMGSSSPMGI
Description: as §1, §2

[6] = target: recombinant human FcγRI (CD64) (human, UniProt P12314 16-288); test: as above
Description: as §1, §2

[7] = target: recombinant human FcγRIIIA (CD16a) V176 (human, UniProt P08637 17-208); test: as above
Description: as §1, §2

Chain of recombinant human FcγRI (CD64) (P12314 16-288 limits assumed): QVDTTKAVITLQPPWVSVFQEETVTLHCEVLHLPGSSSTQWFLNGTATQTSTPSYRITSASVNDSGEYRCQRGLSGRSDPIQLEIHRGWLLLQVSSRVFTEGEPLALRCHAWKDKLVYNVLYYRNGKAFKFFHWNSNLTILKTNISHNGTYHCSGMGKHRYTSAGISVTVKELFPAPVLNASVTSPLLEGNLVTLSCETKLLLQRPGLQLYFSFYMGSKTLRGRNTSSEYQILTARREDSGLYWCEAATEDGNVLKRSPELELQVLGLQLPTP
Chain of recombinant human FcγRIIIA (CD16a) V176 (P08637 17-208 F176V): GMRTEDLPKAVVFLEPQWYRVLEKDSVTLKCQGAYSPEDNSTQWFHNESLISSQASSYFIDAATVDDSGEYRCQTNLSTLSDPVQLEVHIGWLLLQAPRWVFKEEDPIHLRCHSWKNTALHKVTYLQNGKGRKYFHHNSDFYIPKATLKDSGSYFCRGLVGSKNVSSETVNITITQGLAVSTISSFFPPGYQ
T2 sequence (P02745 23-245 limits assumed, chain 1 of 3): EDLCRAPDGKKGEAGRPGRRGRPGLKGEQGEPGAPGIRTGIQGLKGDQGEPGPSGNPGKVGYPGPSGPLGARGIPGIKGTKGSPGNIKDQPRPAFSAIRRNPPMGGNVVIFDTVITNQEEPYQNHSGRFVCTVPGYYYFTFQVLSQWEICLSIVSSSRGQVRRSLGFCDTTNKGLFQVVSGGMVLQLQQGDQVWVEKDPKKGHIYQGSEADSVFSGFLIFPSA
T2 sequence (P02746 28-253 limits assumed, chain 2 of 3): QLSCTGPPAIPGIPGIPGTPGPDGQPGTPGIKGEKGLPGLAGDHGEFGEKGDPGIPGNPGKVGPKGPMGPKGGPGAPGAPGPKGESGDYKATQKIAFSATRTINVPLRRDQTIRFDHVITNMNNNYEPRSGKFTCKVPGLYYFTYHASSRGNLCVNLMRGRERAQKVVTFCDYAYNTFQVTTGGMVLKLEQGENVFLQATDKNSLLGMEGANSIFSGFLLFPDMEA
T2 sequence (P02747 29-245 limits assumed, chain 3 of 3): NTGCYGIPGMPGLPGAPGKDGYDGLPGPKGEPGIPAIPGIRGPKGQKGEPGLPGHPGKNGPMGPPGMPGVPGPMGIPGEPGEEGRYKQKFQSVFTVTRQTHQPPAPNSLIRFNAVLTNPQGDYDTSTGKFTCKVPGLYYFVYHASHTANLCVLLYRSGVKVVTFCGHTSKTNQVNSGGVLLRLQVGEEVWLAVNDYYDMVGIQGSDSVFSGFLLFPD

- binding result [1]: no binding (tested: 1000 ng/mL (log 3))
- EC50 (ng/mL); NFAT-luciferase luminescence of Jurkat hPD-1/hBTLA report cells co-cultured with CHO cells expressing hPD-L1/hHVEM [2]: 257 ng/mL
B1: humanized anti-BTLA antibody hu17 (antibody, V domains shown)
VH: QVQLVQSGAEVKKPGASVKLSCKASGYNFKHTYAHWVRQAPGQGLEWIGRIDPANGNTKYDPKFQGRATMTADTASNTAYLELSSLRSEDTAVYYCVADHYGSSLLDYWGQGTLVTVSS
VL: DIVMTQTPLSLSVTPGQPASISCKSSQSLLDSDGKTYLNWFQQRPGQSPRRLIYLVSKLDSGVPDRFSGSGSGTDFTLKISRVEAEDVGVYYCWQGTYFPYTFGQGTKLEIK
notes: Called a full humanized antibody; also called hul7; hull

- EC50 (ng/mL); NFAT-luciferase luminescence of Jurkat hPD-1/hBTLA report cells co-cultured with CHO cells expressing hPD-L1/hHVEM [2]: 290 ng/mL
B2: humanized anti-BTLA antibody hu19 (antibody, V domains shown)
VH: B1 VH
VL: B1 VL with I53M, Y54H

- binding result [3]: no binding
- EC50 (ng/mL); NFAT-luciferase luminescence of Jurkat hPD-1/hBTLA report cells co-cultured with CHO cells expressing hPD-L1/hHVEM [2]: 277 ng/mL
- Kd [4]: 0.138 µM
- koff [4]: 0.0708 s⁻¹
- kon [4]: 512000 M⁻¹ s⁻¹
- Kd [5]: 40.6 µM
- Kd [6]: 0.0184 µM
- koff [6]: 0.00387 s⁻¹
- kon [6]: 210000 M⁻¹ s⁻¹
- Kd [7]: 60.2 µM
- fold weaker interaction than the control antibody of the IgG1 subtype (hu18-IgG1) [7]: 400 fold
B3: recombinant humanized anti-BTLA monoclonal antibody hu18 (antibody, human IgG4 S228P, kappa)
heavy: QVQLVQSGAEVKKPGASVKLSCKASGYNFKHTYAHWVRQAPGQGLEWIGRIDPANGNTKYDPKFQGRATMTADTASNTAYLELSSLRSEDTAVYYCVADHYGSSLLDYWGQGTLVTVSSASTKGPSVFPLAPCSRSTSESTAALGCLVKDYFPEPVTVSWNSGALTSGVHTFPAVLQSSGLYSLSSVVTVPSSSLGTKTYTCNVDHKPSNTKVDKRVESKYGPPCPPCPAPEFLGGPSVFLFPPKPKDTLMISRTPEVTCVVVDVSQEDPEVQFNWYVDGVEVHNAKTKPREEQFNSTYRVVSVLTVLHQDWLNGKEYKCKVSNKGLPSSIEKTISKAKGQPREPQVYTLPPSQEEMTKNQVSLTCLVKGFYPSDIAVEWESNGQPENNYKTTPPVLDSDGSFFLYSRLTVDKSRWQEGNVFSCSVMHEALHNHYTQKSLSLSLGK
light: DVVMTQTPLSLSVTPGQPASISCKSSQSLLDSDGKTYLNWFQQRPGQSPRRLIYLVSKLDSGVPDRFSGSGSGTDFTLKISRVEAEDVGVYYCWQGTYFPYTFGQGTKLEIKRTVAAPSVFIFPPSDEQLKSGTASVVCLLNNFYPREAKVQWKVDNALQSGNSQESVTEQDSKDSTYSLSSTLTLSKADYEKHKVYACEVTHQGLSSPVTKSFNRGEC
notes: also called recombinant human anti-BTLA antibody of the IgG4 subtype
